This is an account of results in patent US20210046117A1.

Experiment [1] has as its target CD19 on CD19+ Raji B cells (UniProt P15391). The experiment is described as follows: cell-based or functional assay.
Experiment [2] has the same target. The experiment is described as follows: cell-based or functional assay. The source holds these as a separate data set.

Like-named read-outs stand apart in the source and are kept apart here.

Sequence of UniProt P15391 (P15391 20-556 limits assumed): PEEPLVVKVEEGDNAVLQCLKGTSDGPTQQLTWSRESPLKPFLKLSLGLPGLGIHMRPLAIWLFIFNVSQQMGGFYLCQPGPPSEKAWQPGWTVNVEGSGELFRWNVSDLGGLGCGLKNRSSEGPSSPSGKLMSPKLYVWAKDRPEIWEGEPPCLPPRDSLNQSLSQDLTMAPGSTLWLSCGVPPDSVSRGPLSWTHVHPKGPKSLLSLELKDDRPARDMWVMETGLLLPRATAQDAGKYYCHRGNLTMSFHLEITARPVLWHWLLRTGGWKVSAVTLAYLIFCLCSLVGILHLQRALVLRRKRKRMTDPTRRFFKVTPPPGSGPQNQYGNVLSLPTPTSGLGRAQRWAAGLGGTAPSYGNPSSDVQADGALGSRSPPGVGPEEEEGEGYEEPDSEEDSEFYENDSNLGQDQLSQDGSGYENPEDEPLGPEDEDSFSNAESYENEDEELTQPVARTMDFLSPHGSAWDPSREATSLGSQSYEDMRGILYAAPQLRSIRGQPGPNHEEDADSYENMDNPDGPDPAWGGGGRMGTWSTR

For “anti-CD19 CAR (anti-CD19 CAR cassette as described in WO 2012/079000) (receptor)”, the activated cells in the population (CD25 and CD69 activation markers, flow cytometry, 24h co-culture) in experiment [1] fell in the range of 0.9 to 84.8%; in experiment [2] it was 3.9 to 12.1%.
